In a protein production outcome set (Wang et al. 2014):

Test: label from the status in PepcDB records
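Also: failed if final PepcDB status was selected cloned or expressed and not failed if soluble or beyond.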

Sequence	protein production
MAQQQGMDSALFERRLRPVYDNLEVGNNRKALQESEKLLRKHPNLLCARALKGLSLLRLGRYDESHGCLQTVAEEKPTDDSTLQVLSFCYREMEQLDKIVELYQHAVKQNPGNEELLAHLFISHVRVEDYKAQQAVALQLYKAQPKNAYYFWSVISVVFQGIRGPESALPEKRKIYLGLAQRMVDKHIKEGKMETEQEAFLYLHILKLQNKYQEAWEFLTGELCAKLYPGAPVSMKFELLKELGNWRELNELLQQLLDADRDRWDFYKEYIQSSFELLKLTPQGVENGDKDSLARCQEFLQRIIDSSERKKRGPYLARLELHQRMRAEQLPAEKLIGDFDEMVIEYFRLFGDKSCCTHDIALFLPSISMNQRQALASKLLLESGVTSTSLPKNKEQLQKHLCALQISRMCGSHMDLPADHLLAFYTALKLHYEHGRTTFGKKLLATEMGPSDAYALLAANVMYDLSRRENKSDHLFEALCLLQYVLRNSTSNFHVKLLSLKIYHLFGCQVGAQEMYEYLDIKQIQLDSMGYVHCQLLALGGRFSGNRNVYDATLKFFTNSYKERLEYIALTYRFCTFSKMEEFMNFKERLTNSLQYVACSVEAQICDLVSCYGNITQNLSAYVAMSIEPAEDRIAWHELSDNRDLGAIIRWDPLHEVDAAEERRESFDQEVEVLQVRSLMLRLFASFIDLYHGAGLKDSPAGAETATLELLRESWTGLFQRLRVMNYKPLAQKFLVNLLPTRLHLLLDMPYERFFDDLAQLVLDLQSGSAKLAEQCKRVGDNVIATMELCVQTINESNESNGIDGLWKRRGQQQKVAASLEMLSLYAFLLSVLNDKLQVSSKTKTKKKPVENKVDGPQPISEKERSQMLQELMRQLKHKFEACDTAIRSWKAPVLPRDLSSFMSDMSLKPEVEATLIGDVSATFKDSHELMVTELRNLLKDKIRMVAK	failed
MISSYGDVDMELRDEDLILEEVRDYLTAYLRNIHQEDIILDNERVVVDLNQLYNYGLMEFVEFLINNPQKGIDFIKECYNDAYYTLRNEYPTNVIIAVKNLPKIFKTTRKGKIFTIEDIRSKTLGKLVEFEGIIVMASKIRPMLKKAYYICPKCGREVVREIDILNTDSEKAVCECGAELNLIEHKSIYTDFQEIKVQQPLDLMENPEEPPKYITVFLENSPGIYAGRVKITGIPIKVKKSKKLPIYDIHVKALHCEVLDGEVKIKLTNSDIENIKKIAKRKDVVNILADRLIPEIKGHSAIKKAVLLQQIKGVKKPGKRADIHILLITDPGIGKTVILRKIAEIPGNLYGSVTTATGVGLTAAVVREKTEIGEDTWVIKPGLLVKAHKGTACIDELTVNKELQSYVLEAMESQTIHISKGGINAKLPAECAILAACNPRWGRFNPEVSVAEQINIPAPLLSRFDLIFPIRDVSDKDKDKDIAEYIVDLHRAYLDEKINREMGLDYLEVDGVKIDKEFIIKYIYYARQKKPIISEKAKELFVNYYVEMRKKHQITARQLEAAIRIAEAHAKAKLKDVVDEEDAKEAINIITECLKEIAYDPETGIFDVDKILGVSKKERDKLTTVYEIIKELSEKSELVEHEDIAEEAKKKGIKEDELENIIKKLIKYGDIDEPKPGRYRLL	failed
MKKAMLLIKNGKILTMTGVNYDSGSVLIDNGKIIKVGENIDVDESCEIIDADGFWVMPGIIEAHCHVGIQEEKRGFEGNDCNEMTNPVTPYLRALDGINPMDSAFYTALTAGITGIMVGPGSANVVGGQWMFLKTYGRAIDKMVVLQPSAMKIAFGENPKANYDKKNMMPSTRIAIAAMLREELFEAQQYYEKRKNAEKSGDSFNKEFRKECWVPVFDKKIPLKAHVHRADDILTAIRIAKEFNLNLTLDHCTEGHLVAKEIKESGFPAIVGPTLTSRNKIETQYADFKTAGILHNEGVKVAITTDHPVTRIQDLLICAGLAAKEGLGIEEGLKAITINPAEICNVANRVGSIEVNKDADIAIFDGNPMETFTKTMYTIINGEIVYSLKDKNY	failed
MWKRLLIVSAVSAAMSSMALAAPLTVGFSQVGSESGWRAAETNVAKSEAEKRGITLKIADGQQKQENQIKAVRSFVAQGVDAIFIAPVVATGWEPVLKEAKDAEIPVFLLDRSIDVKDKSLYMTTVTADNILEGKLIGDWLVKEVNGKPCNVVELQGTVGASVAIDRKKGFAEAIKNAPNIKIIRSQSGDFTRSKGKEVMESFIKAENNGKNICMVYAHNDDMVIGAIQAIKEAGLKPGKDILTGSIDGVPDIYKAMMDGEANASVELTPNMAGPAFDALEKYKKDGTMPEKLTLTKSTLYLPDTAKEELEKKKNMGY	failed
MRKSKLTFIATFLILLFLSMPYKAHAASQTPITRADAEQRALTMINLNWTYSKSKNGVLPSAYSGSITAPSQFRGIENVVATGIPYCWGGFDGLNSSSYGESWTNFTDAVNKGAFVGNVKSSSYGHITGTAGLDCSGFVQATFNIKDYKLSTSTIFNQYFTKIDIKDIKHMDILNLPGNHVVIFDKWGTRNGVNGAYTYEATPDTTYGGIQGTKQYFMSMNTVSQYIPGRYVNIKEVAYVQVINASSLNIRTGPSTSYPIIGTISQNQIAEVTGYSSDGTWYKIKINGIEGYASSTYLTYVNNLEHHHHHH	failed
MSLARTEKIYIYGASGHGLVCEDVAKNMGYKECIFLDDFKGMKFESTLPKYDFFIAIGNNEIRKKIYQKISENGFKIVNLIHKSALISPSAIVEENAGILIMPYVVINAKAKIEKGVILNTSSVIEHECVIGEFSHVSVGAKCAGNVKIGKNCFLGINSCVLPNLSLADDSILGGGATLVKNQDEKGVFVGVPAKRMEGGSHHHHHH	not failed
MIAVISMSGHVWSQQVPLWSIIIRTIHLIGLTLWLGSLVYLICYAIKVKINQLTSVRRMLLKVNIIAVFMLVFTGILMAIDETNTLTLWNNVSAWSIYLVIKIAGIITMMLLGFYQTMRALRQRQQVHRFALMTELLIGMILIFAGIMMSK	failed
MPMMNLIYLHGFRSSSLSIKGQQLKHYCQAFPYIQVHLPDLNLPPHEVIKKIENMIQSMDQVALIGSSLGGFYATQLVAKYQIPAVLINPAMRPWQLFRQLFSDQTLPYTVCETWTLDEQQLTEMEKIAVPVVQAADKILVLLQQGDEVLDYREAERYYSQPAHPSLIFTDAHGNHAMEDFENKLPLILAFL	failed
DSLKAEVNTLFARFDEQPLAAASIAQVHTAALFDGREVIVKVTRPNIRTQILQDFEIISWLGQSLESRLEAARALHLSEIIQDYRQIILNELDLTLEADNTRRMRHYFTGSSMMYVPEVY	not failed
MVTLSDPNRRSRRIKRITIVGCLGNLLLTIGKFFSGFVGHSGAMIADAVHSLSDLLTDFVVFIFISISGKPSDKNHDYGHGKFETLATAIIAVTLIIIGAMLCSDGLTKVYRYLRFGDELARPGLIALLMAFVSIVAKEWLFRITRCVGKEENSRSVIANAWHHRSDAYTSVATFIGIGCAFLLGRGWMILEPLSAAVVSVFIIKVGFQMAVPAFRDLLEQSLPDDIEEEIEKIICSESMVKGVRRIRTRNIGNYYAVEADILMDGGLSVALSHAATQRVEKLLRGRYGQPTHIVIHVEPFS	failed
MESDRNLNYINLFMIFVNLIIIVFTSEIMTITLYKISSEFMARDFLDQITVIPWKPQNITIVSIGAYIILIILITVKKKYAKFLNKWEIAALLLCEIFFSVAIMTALNMSYNGIILFIIADLVTNTKDKSNKIIFLILMIIIYIFSVYDFISLKIKMVSFENFLYYYTANRRSYLMELKSILNSINIIVFILYMIVFIQVQMRENEKITSLNKKLNLANEKLEVMNVQLKEYAVKIGSMAETRERNRMAREIHDTLGHALTGISVGIDACLTTIDVSKELTKKQLNIIADVAREAIKDVRRSVKKLRPDALENSSLQDALNNMISRISKATKTKVFLNANIKLLKFGHDEEDTIYRIIQEGITNSIRHGQAEEIYIDMIRRDKQLNITIRDNGKGCANVEEGFGLRHIEERVKLLNGTVEYDGSDSFLITVNIPIRWGDGS	failed
MKEKISEKEYKALIRKIGKEHFDGEKEEYGDGTVGVWTYELRKYKLKPPVKVKYVTQEQFQEYKDSNNQRLIKIETTLAAQGEQIRIQVEQIKELQIEQKAQGETLKLILQTLQKMSDRLDKMEVKMDKMEEKMDKMEGKIDKIENRMDKMEVKMDKMEKRIDKLESKLEHHHHHH	failed
MKVNPDFFPLTQMAQRFVDQLAQCRRLGLTVLEASEHHVLIELPYSTELIGYPDTGVIHGGVITTLMDTACGSAVVSAIFQKYQSLEISPTLDLRVDYMKPAQPHKSVYGFAECYKLSSNIAFTRAIAYQDSIDDPIAHAVGSFMRISPEMVGDAFRQALIGLEHHHHHH	not failed
MRIRFSRCASPRGKSSTGVIVPVCSAIYSIRRFWRWNKMKISVVIPTFNRCHLLAEAINSALDQASSELEVEAVIVDDESDDGTAAWLETAFAGEHRVRVLVNGRGKRPAGARNTGILAARHPKVGVIFSRARYEQDETEVPYMDPNFECKLCYASIATEDKDAVVFDRSYFGHLLKYSCYFNLSAVVMTADAARQLMSESLHIAEDFKFWVRLSHEQIFACLKVPQIRYRSHSANIPFKADKDPAGNTPSMLHTYRLMLGYPGLARSNREQLRKHMAKEYFDWAYRCSRKGRLAEALRLRLALFDLLWKNVVACVKLPWIGLRYRADRVGSTEQ	failed
MMTITTDRTPPAAGAALDRNRSAYAGLADVLERAGLAEHALYLNWGYRPVDGQPDWAARELPPGELGRMQARLVLEVLGDTPLDGRRVLDVGCGRGGALALMGRLHAPAALAGADISAANIAYCRKRHTHPRLRFQIADACRLPYPDSSMDVVFNLESSGAYPDIGAFFHHVHRILRVGGRFCLADVFDADSVAWVRAALEQAGFTLERERSIPAQVRAARERASPGIWRRLDTALTALDAPGLRRELERYLAAPSSGLFQALEDGRVDYRLFHWRKTCPAAGRIDADVIARLATRSARLDAALQDRAPSAAAPQSPAPGPANASASAWFPFTAPDAQAGFNVFALPYAGGGASVYRAWTLPRRPGAAPWQLCPVQLPGRESRFGEPLIDDMATLADRLADAIGPYAHRPWALLGCSLGCKIAFEVARRFARQGRPPALLFLMACPAPGLPLGRRISTRAEADFAREVCHLGGTPPEVLADAEMMRTLMPILRNDSALAEHYVAAEDATVNVPIVMVAAGDDHLVTVEEARRWQRHAGAGFDWRLVDGGHFFLRQRRRELTDWLLDALRRGERTLPVQTTTTDVPDVPCSTPEQPRDPSRMPAPGASANLVLAPGEILVVTAPRSLAARLTPAVLSDDEQRQLARFAFDADRERYLAAHWAKRRVLGALLAAAPRSLRFGAQAGGKPYLIGEALHFSLSHSGDRVAVAVCRHAPVGVDIEQARGIACHASAARIMHPLDRIAPQCETPEDRFLAAWSLKEAVAKCTGAGLALPFDSLRLAFAGNGRYGCLLGTHAAWEAHHQHEDGVHLAVASATPWAALRILPLDAALAEG	failed
NGQAITLASKHYGSVNSAADLKGMVLGIPFEYSVHALLLRDYLVSNAVDPIADLELRLLRPADMVAQLTVEGIDGFIGPGPFNERAISNGSGRIWLLTKQLWDKHPCCAVAMAKEWKAEHPTAAQGVLNALEEASAILSNPA	failed
IAAGGSHVEAAPQEEWKKHFIHTGELGSAEFASVMSHTTSAMKSVFEQVNAPYSGMDPKALEDAINAVDLDNKNAPLKSVIDDVAELVAKNAIFTQHPDCIAHLHTPPLMPAVAAEAMIAALNQSMDSWDQASSATYVEQKVVNWLCDKYDLSEKADGIFTSGGTQSNQMGLMLARDWIADKLSGHSIQKLGLPDYADKLRIVCSKKSHFTVQKSASWMGLGEKAVMTVDANADGTMDITKLDEVIAQAKAEGLIPFAIVGTAGTTDHGAIDDLDFIADMAVKHDMWMHVDGAYGGALILSSHKSRLKGVERAHSISVDFHKLFYQTISCGALLVNDKSNFKFLLHHADYLNREHDELPNLVDKSIATTKRFDALKVFMTMQNVGPKALGDMYDHLLAQTLEVADMIRTNDQFELLAEPSLSTVLFRATHETADLDELNKALRLEALTRGIAVLGETIVDGKTALKFTILNPCLTTSDFESLLSKINMLAVELV	not failed
MSYEKEFLKDFEDWVKTQIQVNQLAMATSQEVAQEDGDERAKDAFIRYESKLDAYEFLLGKFDNYKNGKAFHDIPDELFGARHY	not failed
MVLLLDYWDQWAEAYRINGKSINTVYRYKLFRKHLKSRFDGRKLNSIRPIEWQKFINDFAAGKDRKEKTTRKRPRERSKDIVTKMNSYVRGMVKAAINERILFSDFTFGTKTSGVRSSGKVKVLEHHHHHH	failed
